Measurements as given in article PMC9200632, “Development of spirulina for the manufacture and oral delivery of protein therapeutics” (Nature Biotechnology, 2022).

Experiments:
[1] = target: T1, RBD antigen (SARS-CoV-2 receptor-binding domain) (SARS-CoV-2, variant  …, UniProt P0DTC2); experiment: ELISA
T1 construct: source: provided by R. Strong (Fred Hutchinson Cancer Institute)

[2] = target: T2, MBP–FlaA (C. jejuni flagellin FlaA, amino acids 177–482) (Campylobacter jejuni, flagellin A …, biotinylated (EZ-Link NGS-PEG4-Biotin kit) in the BLI); experiment: BLI; Octet Red96e; biotinylated MBP–FlaA loaded at 100 nM on streptavidin biosensors; purified aa682 from 1 μM to 10 nM in PBS with 1% BSA and 0.05% Tween-20; association 20 s, dissociation 140 s; global fit, 1:1 model; details: both partners purified
T2 construct: The biotinylated form was used for BLI; The ELISA methods name the coating protein only as recombinant FlaA; also called recombinant FlaA; recombinant C. jejuni flagellin; source: E. coli BL-21(DE3), purified (Amylose Resin); not shown: MBP, N-terminal, kept
T2 chain: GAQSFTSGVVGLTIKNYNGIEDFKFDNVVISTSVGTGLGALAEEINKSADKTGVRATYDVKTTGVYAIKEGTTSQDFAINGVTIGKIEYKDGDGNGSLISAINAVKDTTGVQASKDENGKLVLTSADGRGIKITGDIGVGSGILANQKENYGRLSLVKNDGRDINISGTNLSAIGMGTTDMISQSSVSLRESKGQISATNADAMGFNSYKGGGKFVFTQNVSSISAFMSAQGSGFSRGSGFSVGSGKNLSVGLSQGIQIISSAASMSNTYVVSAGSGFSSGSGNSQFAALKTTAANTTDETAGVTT

B1: PP622, monomeric RBD-binding VHH (VHH-72), E. coli-expressed and purified (VHH)
VHH: QVQLQESGGGLVQAGGSLRLSCAASGRTFSEYAMGWFRQAPGKEREFVATISWSGGSTYYTRSVKGRFTISRDNAKNTVYLQMNSLKPDDTAVYYCAAAGLGTVVSEWDYDYDYWGQGTQVTVSS
notes: also called monomeric VHH; source: E. coli, purified (IMAC)
Binder B1 has an EC50 ([1]; both partners purified) of 18.3 nM.

B2: monomeric RBD-binding VHH (VHH-72) in extract of spirulina strain SP1464 (VHH)
VHH: B1 VHH
notes: also called monomeric VHH, extract; source: spirulina strain SP1464, in extract
In the case of B2, the EC50 ([1]; one partner purified) is reported as 52.3 nM.

B3: PP661, dimeric RBD-binding VHH (VHH-72 on the 5HVZ scaffold), E. coli-expressed and purified (VHH)
VHH: B1 VHH
notes: also called dimeric VHH; source: E. coli, purified (IMAC)
In the case of B3, the EC50 ([1]; both partners purified) is reported as 0.32 nM.

B4: dimeric RBD-binding VHH (VHH-72 on the 5HVZ scaffold) in extract of spirulina strain SP1477 (VHH)
VHH: B1 VHH
notes: as the dimerization motif of m5, named only by its PDB entry 5HVZ; also called dimeric VHH, extracted form; source: spirulina strain SP1477, in extract
Work on B4 yielded an EC50 ([1]; one partner purified) of 1.29 nM.

B5: aa682 (VHH)
VHH: QVQLVESGGGLVQAGGSLRVSCTASVSTFSINALGWYRQAPGKARELVAAIGSDGTVYYTDSVKGRFTISRDNAKNTVSLQMSSLKPEDTAVYYCNAAGKRIGSDGSIWFAVASFGSWGQGTQVTVSS
notes: N-terminal methionine removed (intact mass); Monovalent VHH-MBP fusion, predicted MW 54.8 kDa
B5 showed a Kd [2] of 53 nM.
